Laboratory results published in the DeepSol protein solubility set.

Assay: soluble on expression in E. coli; label from the status in PepcDB or PDB records
In the case of “MSGPVRTRRILEELGPTYIKLGQLLSMRRDLVPLEYAAEFSKLQDDAPSFGFEEVELIIREELGLPVEDLFESFEKKPLACASIGQVHRAKLKNGDDVVVKVQRPGIKEVIESDLDIMYSLSRLLTEHIPEARLYRPVELVDELSRSILAEIDYSQEGWNTDRFAENFKDSEQIHIPKVYWDYTGTRVLTLEYIEGIKGGRVDLLEKLEHHHHHH”, the “soluble on expression in E. coli” value is reported as “not soluble”. For “MKQIFIGIIRFYQKFISPMTPPTCRFYPTCSHYGLEAFQKHGALKGFWLTCKRILKCHPFHPGGFDPVPDKKDDKVNSLEHHHHHH”, the “soluble on expression in E. coli” value was “not soluble”. For “MTAIRFDHVDVIFGTHTKEALKLLDQGLGRAEILKRTGQVLGVEDACLDVNRGEICVLMGLSGSGKSSLLRCINGLNKVSRGKLLIEHEGSQVDIANCSPATLKAMRTKRIAMVFQKFALMPWLTVAENVGFGLEMQGRPAAERKKLIDEKLELVGLSQWRDKRPDSLSGGMQQRVGLARALAMDGDILLMDEPFSALDPLIRQQLQDELLVLQRQLHKTIVFVSHDLDEALKIGTRIAIMKDGRIIQHGKPEEIVLSPADDYVRTFVAHTNPLNVLCGQSLMRGLDQCIRQNDEICFDQGRDCWIGLSEGDVLKGARQGSNVIDLQRWRQGDPVEKLRREPTLVDVSIRMRDALQIRYQTGHKLVLQEQDRVVGVLGDSELYHALLGKN”, the “soluble on expression in E. coli” value was “not soluble”. For “MGSDKIHHHHHHLLYRTIMVGENLESMQCEKYFESLFDVDFDYLVGLGKEMPTILFIDASKYSKDVLNDWIFAFTNIILINNNPIRAFIIRGYSEELQEFKGYYRVVSSYKSPRQIVQEIISNVNDHLDKMIGNSSRVIQMKKMLVLSMFYDGSIMILGETGSGKNLLAEVIAKLSPRGSRPFYSINCAAIPENLLESEIFGYKKGAFTGATSEKVGLIEQANNGTLFLDEIGDMPLNLQAKILAITENREFFKIGATRPIKVDVRFITATNRYDDSAMRNDLRYRLSAVKIDLPPLRERKSDISLIFDEILEKKGYLVKFENIPQDLKERFLSYSYPGNVRELINMIEEYLAVNDVVQASVNSSMSKYVKVLAEEAIVARMVNGTSYKDFLQEVYKSVSQELLLQRSEVLKNDINEIAREFGLTTRRIRDLLAELNSSAKALTPNDDDE”, the “soluble on expression in E. coli” value was “not soluble”. With “MSSIKIECVLPENCRCGESPVWEEVSNSLLFVDIPAKKVCRWDSFTKQVQRVTMDAPVSSVALRQSGGYVATIGTKFCALNWKEQSAVVLATVDNDKKNNRFNDGKVDPAGRYFAGTMAEETAPAVLERHQGALYSLFPDHHVKKYFDQVDISNGLDWSLDHKIFYYIDSLSYSVDAFDYDLQTGQISNRRSVYKLEKEEQIPDGMCIDAEGKLWVACYNGGRVIRLDPVTGKRLQTVKLPVDKTTSCCFGGKNYSEMYVTCARDGMDPEGLLRQPEAGGIFKITGLGVKGIAPYSYAG” the “soluble on expression in E. coli” value was “soluble”. With “MILNPQQRTKLDSRRDDLFYAAPRFVTHVDDFFLARLTDLYRQYLQPQMRVLDLMSSWVSHLPPELSFQEVVGHGMNAAELARNPRLDRYFVQNLNEELALPLEDASFNAVLMAVSVQYLQYPEATFTEIARILKPQGVVIVSFSNRMFFEKAIQAWREGSEGDRVQLVQTYINSTPSLKVIATHLPRLWPWRGFTDPFYAVVGQKQAVLEHHHHHH” the “soluble on expression in E. coli” value was “soluble”. With “MSLTRAQLEDMPQYQQVYSSINTWPSKKWYVGKGVHLSELLSLVGIKDDARLLKFTSQDGYTMTLTVKELLVDKRYYFPHFNDNKIGDGEGNIAGSSQGAELVEPIIALISVEGSNNPNYMNDLNTLVLMMGQRAVTEQTGNAFVKYLNKIEVLTSEVPKWDSPQANPGSGEVSAGTMIALSTARMDDDKIYYTTDGSTPNLNSPIYNWIAKRWWSARADILGTYNHPIGPINENTTIKAITIGPGKENSDVATFTYTVPVSKPASETSIVAPNEATNYPDQALEKPLQSEPKATLTDVQNHWAQKNINELIASGIAGGYPDSSFRPDNTITRAEFATMLVKAFNLQNQGGKVFADSEQHWAKEYISRATASGVVSGYDAENFGPDKLITREQMAVMISKAAKLVLKAEAMHFADSAGISEWAKEAVLAANQSGIVKGYPDNTIRPQGSATRAEAVTVIVNALTLKEGHHHHHH” the “soluble on expression in E. coli” value was “not soluble”. For “MASVSFGGLATGLDSNTLISQLMYLERAPERILESKKSTISSQIDVYTQVTNLLNSFKTLAAGMNTATGFMGKTTSVGDSTVATATSSSIASPGSFNLTVNSLAKNERQVVDQGYASADALNFKTGTFTISGVATPITIAEGQNSLQGIASAINASGANVTASIINDGSANPYRLVITGKDTNNYTLNFSGLTGDPASGSAYTTPTITKSGPTYQAGAAASFSVNGIAITKTSNIVTDVIPGVTLTLLKEGGATTTVTVGNDTSGVTKKINDFVGAYNAAMSQINKQSEYNATTKKGGVLSGDSTLRSVKTQLQNVLTTPVAGITGKYSTLADIGITTDRSNGTLTVDATKLADALGSNFNDVVELFTKNGGVSNLDTEKYGVAEQFRKVIDRFTHAYEGPSSTANGIISSRVRGLNDTIKSIDDQIDAMEVRMERKEEALKKQFTAMETLVSSLTTQGNSLISYLYGS”, the “soluble on expression in E. coli” value was “not soluble”. In the case of “MGSDKIHHHHHHMLPLEGLTVIAVEQAVAAPYCSSRLADAGAHVIKIERPEGDFARGYDAAAKGQSSYFVWLNRGKESAVVDLATKEGRAELEKLIASADVLLQNLKPGSMDKLGFARERLRKDYPKLIICTISGYGDEGPYAHRKAYDLLIQAESGLASITGGPESASRVGMSIVDVATGATAHAAILEALIGRGRTGQGADIRISMFDVMADWLTVPLLNAEAGNPPKRLGLAHPSIAPYGVFTSKDGKDILISIQSEREWKKLCSDVLRQPDLPNDPRLCNGVERVKNRAYTDKIVADIFGSLTRDDLLEHLAAADIAFAEVNAMEDLSHHPHLRRIEVDTPNGKVSYPAPAAIFVGDERRYGAVPGIGDKRK”, the “soluble on expression in E. coli” value is reported as “not soluble”. With “MSGEVGSNECLVSTNEVQEDSPAVTESSSANGSSPVRRGRGRPPKGTKVPKVKPAPKPYSGAPRGRPRKSDQVAKSPVAKSPVASSSADASPKRSRGAPKSYAEDVAATKPAKTDVATPALAALTGEKKGRGRPKKN” the “soluble on expression in E. coli” value was “soluble”. With “NGKLFLVGTPIGNLKDITLRALETLQNCDVIAAEDTRQSLKLLNHFDIKKPLISYHKFNENNRSSELMDMVREGKKVALVTDAGMPGISDPGSVIVEKFIENNLEFEVIPG” the “soluble on expression in E. coli” value was “soluble”. With “MDISMKQSKRNLWWSVCAGLLFCSWGCSSQVSDKPVTLETLLDEMVSVEEQALYPVPSYTCRQESSYDRASVSPDSAGWFANSDGFGIKRVDTVAGRIEKVMFDEVGPGAITRIWITTIDKRGTWRFYFDGSDQPGWIIPAYDLMRINVPGLGKGMLQAHTSYTPEGKGGNTLFLPIPYARGCKVTFEDEPGVNPTPKYYHINFRKYPEGTQVETFSKEVVERAAQKIAEVDNRLLQPVAGRKGEILREEKSILPSDSLVIPLPAGENAVYEVKFNIRIDNPEQYAQLMRELVFSAGFDGKQTVWVPLSDFSGGGMGAPKVDSWYLTSDGKGNISSRWLMPYQKDGVLKVLNLSSRSVAATMEVNVAPLKWNKDRSLYFYASWRQENGIYIHDKPEEADQCVEWNFATLKGRGVYKGDLLSLYNHAPLWYGEGDEKIWVDDDTFPSHFGTGTEDYYNSSWAPVVPFYTPFGGAPRADLESSHGYNAFYRTRHLDGIPFNKSFKFDIEMLGWKRGEADYATTIYWYGDPEAQVFGTSGIEEARRQLLPAVEASADLEHHHHHH” the “soluble on expression in E. coli” value was “soluble”. With “GAMGSMKPYLFDLKLKDTEKLDWKKGLSSYLKKSYGSSQWRTFYDEKATSELDHLRNNANGELAPSSLSEQNLKYYSFLEHLYFRLGSKGSRLKMDFTWYDAEYSSAQKGLKYTQHTLAFEKSCTLFNIAVIFTQIARENINEDYKNSIANLTKAFSCFEYLSENFLNSPSVDLQSENTRFLANICHAEAQELFVLKLLNDQISSKQYTLISKLSRATCNLFQKCHDFMKEIDDDVAIYGEPKWKTTVTCKLHFYKSLSAYYHGLHLEEENRVGEAIAFLDFSMQQLISSLPFKTWLVEFIDFDGFKETLEKKQKELIKDNDFIYHESVPAVVQVDSIKALDAIKSPTWEKILEPYMQDVANKYDSLYRGIIPLDVYEKESIYSEEKATLLR” the “soluble on expression in E. coli” value was “soluble”. In the case of “MKVGINGFGRIGRQVFRILHSRGVEVALINDLTDNKTLAHLLKYDSIYHRFPGEVAYDDQYLYVDGKAIRATAVKDPKEIPWAEAGVGVVIESTGVFTDADKAKAHLEGGAKKVIITAPAKGEDITIVMGVNHEAYDPSRHHIISNASCTTNSLAPVMKVLEEAFGVEKALMTTVHSYTNDQRLLDLPHKDLRRARAAAINIIPTTTGAAKATALVLPSLKGRFDGMALRVPTATGSISDITALLKREVTAEEVNAALKAAAEGPLKGILAYTEDEIVLQDIVMDPHSSIVDAKLTKALGNMVKVFAWYDNEWGYANRVADLVELVLRKGV”, the “soluble on expression in E. coli” value is reported as “soluble”. With “MEIGTVTSQEEKLAYEKSIEMAGNYANQFDAQMEANQAIARTLACTMAEYGSQDREEAMSIIKRILNENPQLIGVYLGYEPDAFDGRDKNYINAPGHDSTGRFVPYCNKINGPVIIEPLVHYDSSDYYQLPKTTGKDTLTEPYFYEGIFMVSYDSPIFKNGEFAGIAGVDVPLEYVDDVASSIRTFDTGYAFMVSNTGIFLSHPTQKNWIGEKSLSDFDVEEIKNAASDIREGIGGHVEIKDPITGKTVIMFYEPVKTGDFSFVLVVPKEEMLAGVKDLRDRLLEHHHHHH” the “soluble on expression in E. coli” value was “soluble”. With “MNFLKKEPFKIFSMIYLLLDTITNRAGTERAVINLANNLHANGHRVSLVSVCTKEGEPSFQVEKGIEVHHLGIRLYGNALARKTVYFKAYRRIKALYKKREPVLLIGTNIFINTILSQISNRGRIFTIGCEHISYDIARPITKRIRGFLYSGLDAVVALTKRDQQSFEAILRGRSKAYVIPNQVSFTTVQRDATTHKQMLAIGRLTYQKGFEFMIEDASRVLRERPDWKLIIVGDGENESMLRKEIASRNMESQIEIHPSTPEIRKYYESSAIYLMTSRFEGLPMVLLEAEAYALPIISYDCPTGPRELIENGRNGFLVPMEAHEDFADKLRLLMDDETLRKKMGQESELMVKSYSPANIYECWKKLFVEIGYMN” the “soluble on expression in E. coli” value was “soluble”. For “MDKYRLLLLGGGRGLFDIDEDFMHWIDEFIEEHSNSIEITIVTGKNKKLYDNLTHKKPLKNIKVLGFVNDMYNLIRECDLMLTKPGGATIFEAIQSQTPVLVKMPKVGQEIENAKFIIDKGLGMIYSDDLDLKNIFYKLVSNEFDSIINFMKKNLKEFKTVIHPEKIADYISELIDNHLEHHHHHH”, the “soluble on expression in E. coli” value was “not soluble”. In the case of “VFLDFEKGIEEFEAKIEQLRFAQDNSALDISAEIARLQTKSLGLTKSVYAKLTPWQISQVARHPQRPYTLDYVQHLFTDFEELHGDRNFADDQAIVGGLARFNGQTVMIIGHQKGRDTKEKIHRNFGMPKPEGYRKALRLMRLAEKFSI”, the “soluble on expression in E. coli” value is reported as “not soluble”. In the case of “MAHHHHHHMSTNISPNIKKGGVTAADLMQLQGAALRLRSQCTQREADNRRLTQKLREYEEQLFFLRANELILRKQVSVWSSYHRLFAQPLYEARLAVERYKHEAHQSLVHEMQVDRQRRSSLANAANEKRERERAGLQARLRQLQELQDEKRKKNEELELRLRRASEESLRAQKQASKLKDELAYCMDRLEESERERERVKRHLSEHEAALLKARHNVAGMGHFEEEIRSRDTVIAQLQRTVRELNTIMAQQSASRLEEANGENTPPQHEAEEKKLAASPQRLLNDSCDSEWVLKQSIGWFRSKMEREMKPSTPRRQMFEPCSSSAHPAPSLSSFSWMEGRCDSGDVDLQEFLSRELQAPLL”, the “soluble on expression in E. coli” value is reported as “not soluble”.
